Where two headings read alike, the source gives them in different places.
T1: hMFI2 Tf-like Domain 1 (TLD1), amino acids 20-357, displayed on yeast (human, UniProt P08582 20-357)
T1 construct: also called TFLD1
T1 sequence: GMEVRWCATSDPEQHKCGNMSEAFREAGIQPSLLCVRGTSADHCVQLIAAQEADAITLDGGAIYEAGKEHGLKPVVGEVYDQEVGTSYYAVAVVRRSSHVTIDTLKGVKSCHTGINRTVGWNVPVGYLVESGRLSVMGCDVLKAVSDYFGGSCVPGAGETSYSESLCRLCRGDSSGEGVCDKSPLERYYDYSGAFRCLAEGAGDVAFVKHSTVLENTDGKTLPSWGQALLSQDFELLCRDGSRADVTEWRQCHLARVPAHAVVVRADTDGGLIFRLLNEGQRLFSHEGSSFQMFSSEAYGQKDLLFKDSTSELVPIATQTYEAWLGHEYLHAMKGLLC

B1: SC57.27 (antibody, V domains shown)
VH: ELKLVESGGDLVKPGGSLKLSCAASGFSFNNYAMSWVRQTPEKRLEWVASISSGGTTFYPDSVKGRFTMSRDHARNILYLQMNSLRSEDTAMYYCVRGQWLSLYSMDYWGQGTSVTVSS
VL: DIQMTQSPVSLSASVGETVTITCRASEIIYSYLAWYQQKQGKSPQLLVYNAKTLAEGVPSRFSGSGSGTQFSLKINSLQPEDFGTYYCQHHYGVPVTFGAGTKLELK
B2: SC57.2 (antibody, V domains shown)
VH: QVQLKQSGPGLVQPSQSLSITCTVSGFSLTDYGVHWVRQSPGKGLDWLGVIWSGGNTDYNAAFISRLSISKDNSKSQIFFEMNSLQDTDTAIYYCARQLHYYGPFAYWGQGTLVTVSA
VL: QIVLTQSPAIMSASPGEKVTMTCSASSSVSYMHWYQQKSGTSPKRWIYDTSKLASGVPVRFSGSGSGTSYSLTISSIEADDAATYYCQQWSRTPPTFGGGTKLEIK
B3: SC57.7 (antibody, V domains shown)
VH: GVQVVESGGGVVQPGGSLKLSCAASGFTFSSYAMSWVRQTPEKRLEWVAYLSRGGGSTYYLDTVKGRFTISRDNAKNTLYLQMNSLKSEDTAMYYCARLDGYNWYFDVWGAGTPVTVSS
VL: DIVMSQSPSSLAVSAGEKVTMSCKSSQSLLHSRIRKNYLAWYQQKPGQSPKLLIYWASTRESGVPDRFTGSGSGTDFTLTISSVQAEDLAVYYCKQSYNLFTFGGGTKLEIK
B4: SC57.48 (antibody, V domains shown)
VH: GVQVVESGGGVVQPGGSLKLSCAASGFTFSSYAMSWVRQTPEKRLEWVAYLSRGGGSTYYLDTVKGRFTISRDNAKNTLYLQMNSLKSEDTAMYYCARLDGYNWYFDVWGAGTPVTVSS
VL: DIVMSQSPSSLAVSAGEKVTMSCKSSQSLLHSRIRKNYLAWYQQKPGQSPKLLIYWASTRESGVPDRFTGSGSGTDFTLTISSVQAEDLAVYYCKQSYNLFTFGGGTKLEIK

Experiments:
[1] = target: T1, hMFI2 Tf-like Domain 1 (TLD1), amino …; assay: flow cytometry on yeast displaying hMFI2 domains
[2] = target: T1, hMFI2 Tf-like Domain 1 (TLD1), amino …; assay: flow cytometry on yeast displaying hMFI2 domains; remark: listed apart in the source

Binder | binding result [1] | binding result [2]
B1 | binds | –
B2 | binds | –
B3 | binds | –
B4 | – | binds

— US20170320960A1 (AbbVie / Abbott, published 2017)
